# Measured values reported in US20230110188A1 (ARGENX IIP, published 2023).
# T1: Human MuSK (R&D Systems, cat. 10189-MK, histidine tag) (human, UniProt O15146 24-495)
# T1 construct: Bought protein; also called human monomeric MuSK-6xhis; not shown: histidine tag (6xhis)
# T1 sequence: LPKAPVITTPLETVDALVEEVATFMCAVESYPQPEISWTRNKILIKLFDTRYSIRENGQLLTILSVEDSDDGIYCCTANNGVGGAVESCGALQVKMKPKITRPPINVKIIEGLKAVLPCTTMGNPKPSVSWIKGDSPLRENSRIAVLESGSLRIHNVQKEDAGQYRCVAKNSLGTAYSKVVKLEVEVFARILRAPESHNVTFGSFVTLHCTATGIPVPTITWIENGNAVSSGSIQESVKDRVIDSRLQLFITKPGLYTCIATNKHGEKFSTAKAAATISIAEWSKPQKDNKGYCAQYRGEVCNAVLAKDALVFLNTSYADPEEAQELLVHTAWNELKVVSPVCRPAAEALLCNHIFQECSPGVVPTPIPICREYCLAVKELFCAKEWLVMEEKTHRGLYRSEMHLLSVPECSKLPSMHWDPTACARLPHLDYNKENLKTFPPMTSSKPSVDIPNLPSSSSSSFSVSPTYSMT
# T2: human monomeric MuSK FLAG streptavidin (in house produced, batch 27-6-2019) (human, UniProt O15146 24-495)
# T2 construct: also called full length MuSK; not shown: FLAG and streptavidin tags
# T2 sequence: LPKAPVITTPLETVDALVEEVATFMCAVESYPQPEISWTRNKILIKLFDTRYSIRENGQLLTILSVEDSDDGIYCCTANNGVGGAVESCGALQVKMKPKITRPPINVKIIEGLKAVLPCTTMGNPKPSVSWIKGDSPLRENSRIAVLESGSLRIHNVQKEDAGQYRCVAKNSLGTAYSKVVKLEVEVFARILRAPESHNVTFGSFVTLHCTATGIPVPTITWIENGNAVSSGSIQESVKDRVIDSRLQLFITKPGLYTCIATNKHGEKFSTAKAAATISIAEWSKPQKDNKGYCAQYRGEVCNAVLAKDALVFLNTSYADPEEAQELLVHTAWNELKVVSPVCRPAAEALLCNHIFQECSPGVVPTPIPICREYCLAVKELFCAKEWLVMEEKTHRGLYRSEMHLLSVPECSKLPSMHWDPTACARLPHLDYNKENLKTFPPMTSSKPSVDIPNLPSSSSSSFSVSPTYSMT
# Experiments:
# [1] = molecular target: T1, Human MuSK (R&D Systems, cat. 10189-MK, …); experiment: SPR (Biacore), pH 7.4 (summary table, repeats the average of Table 16); pH 7.4
# Description: In order to study pH dependent binding of our antibodies to MuSK, the Biacore was used with the same setup as described in the paragraph entitled “Binding affinity for mouse, human and rhesus monkey recombinant MuSK in Biacore”. 6. […] For the other antibodies there is no real difference observed between pH 7.4 and 5.5.
# [2] = molecular target: T2, human monomeric MuSK FLAG streptavidin …; experiment: epitope binning ELISA (coated anti-MuSK Fab, MuSK, IgG, anti-Fc HRP); competitor: 3D9b
# Protocol: For epitope binning—An ELISA plate was coated at 1 μg/ml of the anti-MuSK Fabs and incubated overnight at 4° C. Next, the plate was wash with PBS followed by blocking with 1% casein in PBS for one hour. After washing the plate, 1 μg/ml of human monomeric MuSK (in house produced, batch 27-6-2019) was incubated for one hour at RT. The plate was washed and anti-MuSK antibodies at 0.3-10 μg/ml were added to the plate and incubated for one hour at RT. After washing the plate, detection antibody (goat anti-human Fc HRP (Jackson Immunoresearch cat. 109-035-098)) was added at 5000 fold dilution in PBS 0.1% casein. The plate was incubated for one hour at RT and washed with PBS-T. TMB was added and the reaction was stopped by adding H2504. […]
# For the epitope binning ELISA, a plate was coated with anti-MuSK Fab and human monomeric MuSK was added after blocking the plate. Next the different antibodies were added and allowed to bind.
Binder,koff [1] [s⁻¹],OD 450 nm [2] [OD]
"3D10a (antibody, human IgG1, kappa, L234A L235A, V domains shown) VH: EVQLVESGGGLVKPGGSLRLSCAASGFTFSASTMAWVRQAPGKGLEWVSSVSGDSHHIYYADSLKGRFTISRDNAKNSLYLQMNSLRAEDTAVYYCARERLLRLGVGFDSWGQGTLVTVSS VL: DIQMTQSPSSLSASVGDRVTITCRASQRISGFVNWYQQKPGKAPKLLIYAASTLQSGVPSRFSGSGSGTDFTLTISSLQPEDFATYYCQQSYSPLYTFGQGTKLEIKR",0.00016,0.115
"3D9b (antibody, human IgG1, kappa, L234A L235A, V domains shown) VH: EVQLVESGGGLVKPGGSLRLSCAASGFTFSTYTMHWVRQAPGKGLEWVSSISSRSAYKYYADSVKGRFTISRDNAKNSLYLQMNSLRAEDTAVYYCARDFFQLGPPRFDSWGQGTLVTVSS VL: DIQMTQSPSSLSASVGDRVTITCRASQRISSFLNWYQQKPGKAPKLLIYGASNLQSGVPSRFSGSGSGTDFTLTISSLQPEDFATYYCQQSYSPSYTFGQGTKLEIKR",,0.15

# Second part, the binder after the results:
koff [1] [s⁻¹],OD 450 nm [2] [OD],Binder
,0.133,"3F6c (antibody, human IgG1, kappa, L234A L235A, V domains shown) VH: EVQLVESGGGLVKPGGSLRLSCAASGFTFSSYTMDWVRQAPGKGLEWVSSIGSNGDYIYYADSVRGRFTISRDNAKNSLYLQMNSLRAEDTAVYYCARGQLAVAGTHFDYWGQGTLVTVSS VL: DIQMTQSPSSLSASVGDRVTITCRASQKVNKYVNWYQQKPGKAPKLLIYAASTLQSGVPSRFSGSGSGTDFTLTISSLQPEDFATYYCQQSYSPLSTFGQGTKLEIKR"
,0.061,"4D3 (antibody, human IgG1, kappa, L234A L235A, V domains shown) VH: EVQLVESGGGLVKPGGSLRLSCAASGFTFSSYTMTWVRQAPGKGLEWVSSISSGGHYIYYTDSLKGRFTISRDNAKNSLYLQMNSLRAEDTAVYYCARERLLRLGVGFDFWGQGTLVTVSS VL: DIQMTQSPSSLSASVGDRVTITCRASQSISGYLNWYQQKPGKAPKLLIYAASTLQSGVPSRFSGSGSGTDFTLTISSLQPEDFATYYCQQSYSALYTFGQGTKLEIKR"
